Results as given in article doi:10.1101/2023.02.23.529646 (bioRxiv, 2023).

Columns and labels:
[1] = target: T1, ACAD9_(A184S) (human, UniProt Q9H845 38-621, A184S); experiment: dynamic light scattering
T1 sequence: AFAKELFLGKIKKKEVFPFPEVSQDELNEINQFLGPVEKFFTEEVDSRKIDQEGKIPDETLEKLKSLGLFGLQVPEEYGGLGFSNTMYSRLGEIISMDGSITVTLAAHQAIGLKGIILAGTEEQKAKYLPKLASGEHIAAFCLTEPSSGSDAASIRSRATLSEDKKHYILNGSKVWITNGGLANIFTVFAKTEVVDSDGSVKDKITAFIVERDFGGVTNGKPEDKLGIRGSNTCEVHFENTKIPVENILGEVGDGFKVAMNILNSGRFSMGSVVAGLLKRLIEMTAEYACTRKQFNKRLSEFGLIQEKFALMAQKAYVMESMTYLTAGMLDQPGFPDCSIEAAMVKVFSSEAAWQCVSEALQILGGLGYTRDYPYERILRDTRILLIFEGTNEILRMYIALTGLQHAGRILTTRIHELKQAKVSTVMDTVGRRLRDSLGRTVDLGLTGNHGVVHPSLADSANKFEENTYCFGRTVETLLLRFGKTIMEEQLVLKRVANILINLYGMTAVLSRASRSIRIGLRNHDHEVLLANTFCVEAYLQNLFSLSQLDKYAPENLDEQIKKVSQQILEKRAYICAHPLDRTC

[2] = target: T2, ACAD9_(SR194TS) (human, UniProt Q9H845 38-621, SR194TS); experiment: dynamic light scattering
T2 sequence: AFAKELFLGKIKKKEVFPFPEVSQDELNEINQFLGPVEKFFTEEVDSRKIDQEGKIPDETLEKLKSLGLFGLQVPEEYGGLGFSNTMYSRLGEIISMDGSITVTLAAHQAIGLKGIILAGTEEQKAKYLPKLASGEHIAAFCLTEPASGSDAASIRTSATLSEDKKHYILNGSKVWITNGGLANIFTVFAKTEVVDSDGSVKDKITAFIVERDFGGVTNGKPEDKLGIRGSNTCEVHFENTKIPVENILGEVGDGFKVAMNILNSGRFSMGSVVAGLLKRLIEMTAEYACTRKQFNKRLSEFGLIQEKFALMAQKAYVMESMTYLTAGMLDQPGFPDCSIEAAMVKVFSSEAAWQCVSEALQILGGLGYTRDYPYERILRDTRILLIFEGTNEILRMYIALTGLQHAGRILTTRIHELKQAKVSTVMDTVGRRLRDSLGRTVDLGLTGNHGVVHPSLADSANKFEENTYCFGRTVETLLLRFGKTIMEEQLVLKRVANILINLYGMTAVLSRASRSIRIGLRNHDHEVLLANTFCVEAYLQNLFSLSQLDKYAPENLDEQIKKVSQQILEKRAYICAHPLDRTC

[3] = target: T3, VLCAD_(ACAD9) (human, UniProt P49748 72-655, 437MGGMGFM443 to 437LGGLGYT443); experiment: mass photometry
T3 sequence: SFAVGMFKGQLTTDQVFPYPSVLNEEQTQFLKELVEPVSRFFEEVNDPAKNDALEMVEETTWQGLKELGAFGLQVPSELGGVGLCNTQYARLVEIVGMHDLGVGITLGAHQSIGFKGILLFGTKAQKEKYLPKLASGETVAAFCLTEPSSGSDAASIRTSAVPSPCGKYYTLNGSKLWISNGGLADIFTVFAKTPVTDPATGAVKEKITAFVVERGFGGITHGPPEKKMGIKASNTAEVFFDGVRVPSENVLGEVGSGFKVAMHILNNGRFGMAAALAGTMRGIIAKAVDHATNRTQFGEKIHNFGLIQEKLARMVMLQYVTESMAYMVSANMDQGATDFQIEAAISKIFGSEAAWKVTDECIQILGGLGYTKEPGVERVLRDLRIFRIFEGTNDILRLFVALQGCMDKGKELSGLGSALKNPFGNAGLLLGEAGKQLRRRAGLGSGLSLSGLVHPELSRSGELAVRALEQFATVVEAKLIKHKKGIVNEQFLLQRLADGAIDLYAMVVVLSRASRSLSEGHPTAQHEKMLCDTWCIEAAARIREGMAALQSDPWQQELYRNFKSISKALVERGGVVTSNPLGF

Measured: binding result

B1: ECSIT_(CTER) (residues 221-431) (domain or fragment)
chain: QDPVELAMFGLRHMEPDLSARVTIYQVPLPKDSTGAADPPQPHIVGIQSPDQQAALARHNPARPVFVEGPFSLWLRNKCVYYHILRADLLPPEEREVEETPEEWNLYYPMQLDLEYVRSGWDNYEFDINEVEEGPVFAMCMAGAHDQATMAKWIQGLQETNPTLAQIPVVFRLAGSTRELQTSSAGLEEPPLPEDHQEEDDNLQRQQQGQS
binds: all assays above
